Assay results published in patent publication US9109007B2, “MHC-I restricted epitopes containing non-natural amino acid residues” (Purdue Pharma L.P., priority 2010, dated 2015).
Where no end group is shown, it is not given here. [ ]: non-standard residue; d: D form. Gly(cPent) = N[C@H](C(=O)O)C1CCCC1

Target: T1, HLA-A2 (Homo sapiens, UniProt P04439, D140Y/D185E/D98H/E176V/E277Q/G131W/G231S/I119V/I121R/I166T/I218V/L300P/N151K/N90K/P208A/P217A/Q86G/Q94H/R138H/R169H)
T1 construct: Soluble Class I/Plate-Based Assays; purchased Beckman Coulter
Assay: iTopia plate-based assay: stability (half-life) of peptide/HLA-A2 complexes
Assay type: binding
Conditions: for stability of complex with HLA-A2 compared with the corresponding native survivin peptide: Survivin peptide derivatives
Description: II. Soluble Class I/Plate-Based Assays The plate-based assay, named iTopia™, is a commercial assay (Beckman Coulter). The assay is performed in wells of microtiter plates. At the outset of the assay, MHCI complexes (properly folded MI-IC heavy chain, beta 2 microglobulin and a place-holder peptide), are tethered to streptavidin-coated microplate wells. (Proper formation/folding of the MHC complex may be determined by binding of an anti-HLA-ABC antibody). A buffer designed to unfold and dissociate the complex was added to each test well, allowed to incubate, and the place holder peptide and beta 2 microglobulin were washed away. Escalating concentrations of the test peptide, along with additional beta 2 microglobulin, were added to each well and incubated in a buffer designed to promote refolding of complexes. Plates were incubated overnight at 21° C. Properly folded MHCI complex molecules were detected with a fluorescently labeled antibody selected based on its ability to only bind properly folded MHCI complexes. Binding was reported relative to a standardized positive control peptide. Relative affinities were reported as ED50, and are defined herein as the concentration of peptide required to achieve half maximal binding of the positive control. […] Assessment of Peptide/HLA-A0201 Complex Stability. MHCI complexes were dissociated in each test well using stripping buffer, and the place-holder peptide and beta 2 microglobulin were washed away. 100 uM of the test peptide was added to appropriate wells along with additional beta 2 microglobulin and the anti-HLA ABC antibody, and the plates were incubated overnight at 21° C. Plates were washed, and fresh buffer was added to each well. Plates were shifted to 37° C., and the appropriate wells were read at 0, 0.5, 1, 1.5, 2, 4, 6 and 8 hours.

Row | Substance | stability of complex with HLA-A2 compared with the corresponding native survivin peptide | increase in the half life of the HLA-A2 peptide complex compared to the native survivin peptide (Survivin peptide derivative vs native survivin peptide)
1 | I-[cpg]-TFKNWPF (I[Gly(cPent)]TFKNWPF) | more stable complex | –
2 | K-[cpg]-RRAIEQL (K[Gly(cPent)]RRAIEQL) | more stable complex | greater than 20 fold
